Fewer inactive variants are shown than the library holds.
B1: TPR 5TU (parent)
chain: GGAUCUUCUCGAUCUAACAAAAAAGACAAAUCUGCCACAAAGCUUGAGAGCAUCUUCGGAUGCAGAGGCGGCAGCCUUCGGUGGCGCGAUAGCGCCAACGUUCUCAACUAUGACACGCAAAACGCGUGCUCCGUUGAAUGGAGUUUAUCAUG

Variants of: B1
Assay: polymerase ribozyme fitness, log enrichment relative to wild type (log ratio); higher = more active; in vitro selection for triplet polymerase activity
Summary of the method: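 After PCR construction and transcription, each subunit's mutant library from a heterodimeric triplet polymerase ribozyme was annealed with a biotinylated primer, the partner subunit and triplets. Incubation was frozen, at −7 °C, and extended constructs were gel-excised, bound to streptavidin beads and amplified by RT-PCR, in one selection round done in triplicate. Fitness is the logarithm of a genotype's enrichment divided by that of the wild type, from inverse-variance-weighted replicate averages of Illumina-sequenced inputs and outputs. The base of the logarithm is 2, and genotypes needed ≥10 input reads and ≥1 read per output.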

Variant | polymerase ribozyme fitness (log ratio)
G50A C95U C116U | -1.99
U6G C85A | -1.09
A40G G124U | -2.64
A21C A52C C85U G117C | -0.924
A21U U61G G80A U101A | -2.86
G68C G83U G133U A137C | ≤ -4.2
A3C A16U C54A C87U U104G G141C | ≤ -4.2
C14G A17U A37U A52G C57U A91U U127A U134A A150U | ≤ -4.2
C8G G84U G100U C132U U144A | ≤ -4.2
C27U C51G | -3.3
U45G C76A G86A G141C C149G | ≤ -4.2
G80C C93G A115C U144C | ≤ -4.2
G58C C85A A110C U111G | ≤ -4.2
U102C A150C | -4.08
A66G U102A U135C | ≤ -4.2
G81C C87A A91U C93U C114G A138C G141C | ≤ -4.2
G50U C63U C85A A110G | -4.19
G92U G141A | -1.81
A52G U53A C54U C93G G112U | ≤ -4.2
A37U C95G | -3.51
A22C A26C A49C U56A G59U G68U C85U G86U G94U A97G U134A | ≤ -4.2
U56A G58A C87G G133U | ≤ -4.2
U56A U146A U148C | -2.96
U55A U82G | -0.931

Variant | polymerase ribozyme fitness (log ratio)
G65C C132G | ≤ -4.2
C10A C85G C125A | ≤ -4.2
G58C C96A A115U G128U | ≤ -4.2
A23U G58C G88U G136A | ≤ -4.2
G86C G124A U144A | -2.44
C72U | -0.00972
G59A G84U A98G A115U | -3.58
G62A A98U | -1.42
A26G C75U C96U | ≤ -4.2
G68C C103U | ≤ -4.2
C93U U109C | ≤ -4.2
C54U G94C | -1.15
C35U G92U | -0.627
C118G U144A | -0.0459
A17G A20C A24C U44C A66U C103U U134G | ≤ -4.2
U82G G141U | 1.45
U4A A16U A113C A115U | ≤ -4.2
U53A U55A C79U A98U | ≤ -4.2
A3G C27U U55A U90C G94U C114G C116A | ≤ -4.2
C5U U7A G88U U148C A150C | ≤ -4.2
A3U A17C A89U C132U | -1.09
U4A U9C C27G U55A G70C C85A U127G A142U | ≤ -4.2
G70A A122U | -3.6
G46A U55A G58C G84C | -2.84

Variant | polymerase ribozyme fitness (log ratio)
C38U C69A U82A G94U | -3.99
G74C | -3.96
U101G A115U G117U A150C | ≤ -4.2
A26C A30U C79U | ≤ -4.2
G11U G34A G88A G124A | ≤ -4.2
A3C C93A A98U | -1.79
A40G G58C C79G C87U G136U | ≤ -4.2
C69A G83C U101G | ≤ -4.2
U55G A60G C79U A119C | -2.12
C99G G126A | -0.619
G48C U53G | -3.59
G83C G136A | -0.101
A60G A91C C95U A110U C114U C118G A150U | ≤ -4.2
U127C C131A G152U | -3.91
C18G A23U A39G U55G A73U A89G A97U | ≤ -4.2
C43A U45G U90A U102G G140A A147C | ≤ -4.2
G46A C85A G136U G140U A142G | ≤ -4.2
G46A U135G | -3.27
C35U C95U C96G | -1.52
C14U G50C | -3.52
A17U A41C G94C | -1.13
C5G U53G C54A C96U U135A | -3.79
A52C G84U | -2.64
U9G A29C G59A C76U C87G A120C | ≤ -4.2

Variant | polymerase ribozyme fitness (log ratio)
C57U U82A C93A G112U C116U | ≤ -4.2
C116U U148A | -3.85
U13A G48U U56A G84A | -1.28
U9G C32A U55A C57U C93G A142C U148C | -4.04
A12U G46A C75U C87A C99U G117A | ≤ -4.2
G42C G80C C93A U104A C108G U145A U146C | ≤ -4.2
A28G A52C U55A G67C C149G | ≤ -4.2
C18U C93U | -1.73
C14U A64G A91U C105G | ≤ -4.2
C99G A115G C125G G136C | -3.89
A24C A37C C38U G59A C95A A107C C116U | ≤ -4.2
A47U A121U A147C C149U | -3.04
A26U G62U U135A | -2.77
G25C G50U C96U A97U | -3.33
A41C G42C C43G G84U C95U C96G | ≤ -4.2
U6G G59C | 0.358
A41U C93A | -3.19
A20U G83C G92A U127A G128U | ≤ -4.2
C57U C85A G100U A138G | ≤ -4.2
A21G U55A C96U G117A | 0.86
A17C A28U U44C A52U G94U A97G A142G | ≤ -4.2
A37U G58A G59C A121U | -0.167
C125U A147U | -1.83
A16G C57A G62A C96U | -1.89

Variant | polymerase ribozyme fitness (log ratio)
C5A U15C U56A C105G A107C G117U U139C G143C U148C | ≤ -4.2
A24U U56C G62A A64G G68C G83A G124U U146A | ≤ -4.2
A37G U55A A66G C75U C85A A122U | ≤ -4.2
A22U C35U A47U G59U G67A C132A G136U | ≤ -4.2
U4A A16U A17G A21U A24U G84A C114U A122U A142C | ≤ -4.2
A23G A91U G140C | ≤ -4.2
A20C A23U C27A G58U C72A A89G C99A A107C | ≤ -4.2
U55A C125A | -0.912
G11U C54U U77G G92U U145A A147U | ≤ -4.2
A17G A19U U53A U56G A60U C69G U111G A142G | ≤ -4.2
G50C A52C U55A G86A | -3.95
G67U | -2.55
U45A G50U G83U C87U C103U C105A | ≤ -4.2
G59A A147U | 1.25
C96G G143C | -2.86
A17G A21C U44A A91C C108U | ≤ -4.2
C72G G86C | ≤ -4.2
U31G C125U U130A | ≤ -4.2
U56A C103A A110G U144G | -3.91
C5A A20G C85U C93U A97U | -3.46
C85U U148C | -2.19
A60U A91U C96A C103A A115U | ≤ -4.2
C96U G126U A137C A138G | ≤ -4.2
A22U G92A C95A C105U | -3.63

Variant | polymerase ribozyme fitness (log ratio)
A22U A47U A49G G133C A142U | ≤ -4.2
C38U G136U | -2.3
C10U C123U G141C | -4.03
C5U C8G A137U U145A A147C | ≤ -4.2
A17C C95U A119U A150G | -1.7
U31G C95U | 0.463
G11C G50U G84U A97G | -3.09
C114U A137U | -4.05
C14U U45A A91U U127G | ≤ -4.2
C99G C149U | -1.74
A20U A21C U102A C125G | -3.5
A29C A39U C96A | ≤ -4.2
C18G C85G | -2.28
U7C C27U C38U C54G A64G C75U C85A C96U C105G C114U | ≤ -4.2
C114G | -2.54
C57A C76U C85U G92C G126C | -2.15
U15A C54U G92A | -3
U13C A24C U45G G84U U135C | ≤ -4.2
C57U U61G G86A A89U | -3.74
A3C C27U C35G C57A G84A C87U | ≤ -4.2
G83U G126A | -0.669
G84A G124U | -0.556
A16G C27U A28G C43U U53A C57A U82G C93U G143C | ≤ -4.2
U61A G83C | -3.05

Variant | polymerase ribozyme fitness (log ratio)
U56A C57A G84A | -0.56
A21U G25A A89C | -3.68
U13G C85U C99U G128C C132U | ≤ -4.2
A22U A30G G46C G50C A52C U55G C72U U82A C87A G88C U90A C99U | ≤ -4.2
C57A A73G C125A | -0.303
U31G G50A | -1.51
A40U A97U C108U | ≤ -4.2
G25U U61G C99G A106G A107U A150G | ≤ -4.2
A22G C132U | -0.512
C51U C75U C96U G143C | -4.11
U55A C57U C85U A91G G141U | -1.7
G59U G67C G136A | ≤ -4.2
A22U A29G A150G | ≤ -4.2
A24U C27G G50C C54G A64C G84A G86C C118G C149U | ≤ -4.2
G48A G88A C105G A115U | -3.86
U4C A20G C85A A98C A115G | -2.8
A41G U53C U55A U82G U127G | -4.02
U15A A17C A23U U55A G84A G92A G94A U102G C116G | ≤ -4.2
C79A U82G C93A G141U G152U | ≤ -4.2
C32G U44A G65A C85G | ≤ -4.2
U104C U135G | -3.31
C14A A16C A19U U82A G83U C149U | -3.89
U4G C54G C95G | -3.63

Source: the RNAGym collection of RNA variant scans (doi:10.1073/pnas.2313332121)
